One block for each molecule: values may come before it.
B1: Top3 (untagged, subunit of the Top3/Rmi1 complex) (enzyme)
chain: MKVLCVAEKNSIAKAVSQILGGGRSTSRDSGYMYVKNYDFMFSGFPFARNGANCEVTMTSVAGHLTGIDFSHDSHGWGKCAIQELFDAPLNEIMNNNQKKIASNIKREARNADYLMIWTDCDREGEYIGWEIWQEAKRGNRLIQNDQVYRAVFSHLERQHILNAARNPSRLDMKSVHAVGTRIEIDLRAGVTFTRLLTETLRNKLRNQATMTKDGAKHRGGNKNDSQVVSYGTCQFPTLGFVVDRFERIRNFVPEEFWYIQLVVENKDNGGTTTFQWDRGHLFDRLSVLTFYETCIETAGNVAQVVDLKSKPTTKYRPLPLTTVELQKNCARYLRLNAKQSLDAAEKLYQKGFISYPRTETDTFPHAMDLKSLVEKQAQLDQLAAGGRTAWASYAASLLQPENTSNNNKFKFPRSGSHDDKAHPPIHPIVSLGPEANVSPVERRVYEYVARHFLACCSEDAKGQSMTLVLDWAVERFSASGLVVLERNFLDVYPWARWETTKQLPRLEMNALVDIAKAEMKAGTTAPPKPMTESELILLMDTNGIGTDATIAEHIDKIQVRNYVRSEKVGKETYLQPTTLGVSLVHGFEAIGLEDSFAKPFQRREMEQDLKKICEGHASKTDVVKDIVEKYRKYWHKTNACKNTLLQVYDRVKASM
B4: Top3/GST-Rmi1 complex (complex)
chain 1: MKVLCVAEKNSIAKAVSQILGGGRSTSRDSGYMYVKNYDFMFSGFPFARNGANCEVTMTSVAGHLTGIDFSHDSHGWGKCAIQELFDAPLNEIMNNNQKKIASNIKREARNADYLMIWTDCDREGEYIGWEIWQEAKRGNRLIQNDQVYRAVFSHLERQHILNAARNPSRLDMKSVHAVGTRIEIDLRAGVTFTRLLTETLRNKLRNQATMTKDGAKHRGGNKNDSQVVSYGTCQFPTLGFVVDRFERIRNFVPEEFWYIQLVVENKDNGGTTTFQWDRGHLFDRLSVLTFYETCIETAGNVAQVVDLKSKPTTKYRPLPLTTVELQKNCARYLRLNAKQSLDAAEKLYQKGFISYPRTETDTFPHAMDLKSLVEKQAQLDQLAAGGRTAWASYAASLLQPENTSNNNKFKFPRSGSHDDKAHPPIHPIVSLGPEANVSPVERRVYEYVARHFLACCSEDAKGQSMTLVLDWAVERFSASGLVVLERNFLDVYPWARWETTKQLPRLEMNALVDIAKAEMKAGTTAPPKPMTESELILLMDTNGIGTDATIAEHIDKIQVRNYVRSEKVGKETYLQPTTLGVSLVHGFEAIGLEDSFAKPFQRREMEQDLKKICEGHASKTDVVKDIVEKYRKYWHKTNACKNTLLQVYDRVKASM
chain 2: MSFSSILSQDITDDITPPAYSATLGSREQIVFRAYQNEPWLAGTASNLILDKKLVIVDRELLFQVLMVENITKSKLTQIDDIKTKLDPKKQKVDRLRSGAQGNGAKKYEVITQVDMEDDGNVADNNCAKENNSNNNSSAAKNKAVFKLTLQSKSGDVFFAINSTPISWSSCMLGSKIVILPGTVFNRGVFILKDSQVIFLGGINRVWNENRDQKFCDYLESKLQRDKQLVNGGSKKRKAND

How the values were obtained:
[1] = target: Mer3-Strep (full-length S. cerevisiae Mer3 with C-terminal 2xStrep-II tag) (Saccharomyces cerevisiae (SK1)) (UniProt P51979); experiment: SEC-MALS
MBP-Mlh1 = target: T1, MBP-Mlh1 (Saccharomyces cerevisiae (SK1), UniProt P38920 1-769); experiment: cross-linking
T1 sequence: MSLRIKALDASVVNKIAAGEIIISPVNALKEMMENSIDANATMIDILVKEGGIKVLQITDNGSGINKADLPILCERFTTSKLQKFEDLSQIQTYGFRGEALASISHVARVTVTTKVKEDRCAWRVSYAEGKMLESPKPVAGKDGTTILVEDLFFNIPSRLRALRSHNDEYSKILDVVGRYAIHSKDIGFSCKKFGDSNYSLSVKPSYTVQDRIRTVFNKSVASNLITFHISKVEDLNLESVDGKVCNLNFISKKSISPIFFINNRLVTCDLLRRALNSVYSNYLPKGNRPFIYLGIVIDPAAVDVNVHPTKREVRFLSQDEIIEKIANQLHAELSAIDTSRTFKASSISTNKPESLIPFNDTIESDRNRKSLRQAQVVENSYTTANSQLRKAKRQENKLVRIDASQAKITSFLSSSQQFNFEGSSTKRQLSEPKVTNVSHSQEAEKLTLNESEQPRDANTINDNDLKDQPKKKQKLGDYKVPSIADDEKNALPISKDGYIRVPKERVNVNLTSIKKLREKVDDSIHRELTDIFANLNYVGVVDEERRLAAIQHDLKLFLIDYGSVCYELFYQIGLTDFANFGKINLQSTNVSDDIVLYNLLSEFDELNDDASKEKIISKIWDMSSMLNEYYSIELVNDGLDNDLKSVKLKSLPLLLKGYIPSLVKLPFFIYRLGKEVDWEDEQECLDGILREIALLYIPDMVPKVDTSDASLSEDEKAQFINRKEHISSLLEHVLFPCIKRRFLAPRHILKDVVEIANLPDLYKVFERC

Top3/GST-Rmi1 complex = target: B4; experiment: pull-down
MBP-Mlh2 = target: T2, MBP-Mlh2 (Saccharomyces cerevisiae (SK1), UniProt Q07980 1-695); experiment: cross-linking
T2 sequence: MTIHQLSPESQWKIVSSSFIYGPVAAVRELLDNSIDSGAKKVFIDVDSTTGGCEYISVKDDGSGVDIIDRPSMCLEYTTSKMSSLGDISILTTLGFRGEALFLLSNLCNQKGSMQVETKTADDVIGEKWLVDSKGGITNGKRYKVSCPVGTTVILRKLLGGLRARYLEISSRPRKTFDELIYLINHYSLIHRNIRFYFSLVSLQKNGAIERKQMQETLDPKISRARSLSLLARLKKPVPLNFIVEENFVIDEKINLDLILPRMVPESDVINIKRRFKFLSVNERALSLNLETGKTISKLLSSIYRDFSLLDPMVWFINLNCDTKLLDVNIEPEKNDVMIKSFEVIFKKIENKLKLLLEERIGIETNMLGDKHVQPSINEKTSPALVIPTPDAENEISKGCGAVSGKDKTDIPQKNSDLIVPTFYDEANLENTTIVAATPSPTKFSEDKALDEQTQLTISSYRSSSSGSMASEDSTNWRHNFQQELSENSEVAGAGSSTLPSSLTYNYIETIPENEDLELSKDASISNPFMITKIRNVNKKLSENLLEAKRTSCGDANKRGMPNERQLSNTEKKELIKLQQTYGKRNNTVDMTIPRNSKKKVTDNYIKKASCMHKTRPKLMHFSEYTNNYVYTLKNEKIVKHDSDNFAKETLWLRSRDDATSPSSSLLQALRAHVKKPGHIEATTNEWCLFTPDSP

[2] = target: B1; experiment: cross-linking
[3] = target: T3, MBP-Mlh1/MBP-Mlh2 complex (Saccharomyces cerevisiae (SK1), UniProt P38920;Q07980); experiment: pull-down
T3 sequence 1: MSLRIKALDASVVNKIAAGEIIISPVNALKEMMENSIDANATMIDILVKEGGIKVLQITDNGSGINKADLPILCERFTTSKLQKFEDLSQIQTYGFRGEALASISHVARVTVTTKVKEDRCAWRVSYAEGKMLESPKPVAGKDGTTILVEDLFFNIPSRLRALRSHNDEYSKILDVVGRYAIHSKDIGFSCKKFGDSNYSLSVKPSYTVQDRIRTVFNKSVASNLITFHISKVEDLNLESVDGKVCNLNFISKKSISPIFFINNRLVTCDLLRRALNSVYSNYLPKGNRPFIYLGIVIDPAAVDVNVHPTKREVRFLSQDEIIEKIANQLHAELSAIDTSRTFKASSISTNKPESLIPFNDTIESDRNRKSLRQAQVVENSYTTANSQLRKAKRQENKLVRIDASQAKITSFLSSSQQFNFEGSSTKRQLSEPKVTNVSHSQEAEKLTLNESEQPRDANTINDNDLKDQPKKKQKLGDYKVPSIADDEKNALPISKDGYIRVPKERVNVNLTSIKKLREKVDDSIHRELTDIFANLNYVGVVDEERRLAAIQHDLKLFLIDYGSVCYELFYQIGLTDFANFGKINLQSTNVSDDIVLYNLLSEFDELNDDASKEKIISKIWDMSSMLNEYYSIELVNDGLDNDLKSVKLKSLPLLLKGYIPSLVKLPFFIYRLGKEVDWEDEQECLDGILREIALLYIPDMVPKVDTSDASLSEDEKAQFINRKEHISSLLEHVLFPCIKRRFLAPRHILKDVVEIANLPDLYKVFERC
T3 sequence 2: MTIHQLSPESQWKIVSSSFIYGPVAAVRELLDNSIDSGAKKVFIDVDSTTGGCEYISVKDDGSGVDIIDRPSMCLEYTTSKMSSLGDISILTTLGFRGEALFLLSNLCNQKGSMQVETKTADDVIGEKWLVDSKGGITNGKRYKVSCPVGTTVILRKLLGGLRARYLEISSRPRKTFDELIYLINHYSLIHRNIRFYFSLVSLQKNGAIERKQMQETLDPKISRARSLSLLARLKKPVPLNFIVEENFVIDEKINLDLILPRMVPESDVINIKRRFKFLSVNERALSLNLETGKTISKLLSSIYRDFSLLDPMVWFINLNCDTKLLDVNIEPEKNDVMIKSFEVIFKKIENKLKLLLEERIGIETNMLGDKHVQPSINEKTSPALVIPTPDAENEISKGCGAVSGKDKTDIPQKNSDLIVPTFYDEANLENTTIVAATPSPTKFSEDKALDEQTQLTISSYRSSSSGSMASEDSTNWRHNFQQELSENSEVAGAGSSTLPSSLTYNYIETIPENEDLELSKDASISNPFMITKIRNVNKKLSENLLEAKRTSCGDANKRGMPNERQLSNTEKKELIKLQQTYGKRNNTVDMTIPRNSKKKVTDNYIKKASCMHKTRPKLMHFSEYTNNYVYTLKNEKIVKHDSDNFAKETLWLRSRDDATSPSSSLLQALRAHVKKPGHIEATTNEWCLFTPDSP

binding result (MBP-Mlh2): binds | binding result [2]: binds
B3: Rmi1 (subunit of the Top3/Rmi1 complex as used in XL-MS) (natural protein)
chain: MSFSSILSQDITDDITPPAYSATLGSREQIVFRAYQNEPWLAGTASNLILDKKLVIVDRELLFQVLMVENITKSKLTQIDDIKTKLDPKKQKVDRLRSGAQGNGAKKYEVITQVDMEDDGNVADNNCAKENNSNNNSSAAKNKAVFKLTLQSKSGDVFFAINSTPISWSSCMLGSKIVILPGTVFNRGVFILKDSQVIFLGGINRVWNENRDQKFCDYLESKLQRDKQLVNGGSKKRKAND

binding result (Top3/GST-Rmi1 complex): binds
B5: His-tagged Sgs1(1-107) fragment (domain or fragment)
chain: MVTKPSHNLRREHKWLKETATLQEDKDFVFQAIQKHIANKRPKTNSPPTTPSKDECGPGTTNFITSIPASGPTNTATKQHEVMQTLSNDTEWLSYTATSNQYADVPM

More lines, now with the values behind:

Molecule: Mer3-Strep (full-length S. cerevisiae Mer3 with C-terminal 2xStrep-II tag) (from UniProt P51979 1-1187) (enzyme)
stoichiometry N [1]: 2

Molecule: B1
binding result (MBP-Mlh1): binds

B2: Sgs1(1-605) fragment, untagged (domain or fragment)
chain: MVTKPSHNLRREHKWLKETATLQEDKDFVFQAIQKHIANKRPKTNSPPTTPSKDECGPGTTNFITSIPASGPTNTATKQHEVMQTLSNDTEWLSYTATSNQYADVPMVDIPASTSVVSNPRTPNGSKTHNFNTFRPHMASSLVENDSSRNLGSRNNNKSVIDNSSIGKQLENDIKLEVIRLQGSLIMALKEQSKLLLQKCSIIESTSLSEDAKRLQLSRDIRPQLSNMSIRIDSLEKEIIKAKKDGMSKDQSKGRSQVSSQDDNIISSILPSPLEYNTSSRNSNLTSTTATTVTKALAITGAKQNITNNTGKNSNNDSNNDDLIQVLDDEDDIDCDPPVILKEGAPHSPAFPHLHMTSEEQDELTRRRNMRSREPVNYRIPDRDDPFDYVMGKSLRDDYPDVEREEDELTMEAEDDAHSSYMTTRDEEKEENELLNQSDFDFVVNDDLDPTQDTDYHDNMDVSANIQESSQEGDTRSTITLSQNKNVQVILSSPTAQSVPSNGQNQIGVEHIDLLEDDLEKDAILDDSMSFSFGRQHMPMSHSDLELIDSEKENEDFEEDNNNNGIEYLSDSDLERFDEERENRTQVADIQELDNDLKIITERKL
binding result (Top3/GST-Rmi1 complex): binds

Molecule: B4
binding result [3]: binds

From doi:10.1101/2022.06.27.497840 (bioRxiv, 2022)
